Experimental data reported in patent publication US20040106773A1 (priority 2003, published 2004).

Columns and labels:
F-11 cells = conditions: DRG-like F-11 cells; cited from earlier work
rat PTH2R [1] = target: rat PTH2R (rat, UniProt P70555 25-546); test: cell-based or functional assay
rat PTH2R [2] = target: T1, rat PTH2R (Rattus norvegicus, UniProt P70555); test: cAMP SPA assay for PTH2R activation, rat PTH2R; assay type: cell-based; conditions: HEK293 cells expressing rat PTH2R, FIG. 4A
T1 construct: V5-His (appears only in the vector name); expressed in transfected cells
T1 sequence (P70555 25-546): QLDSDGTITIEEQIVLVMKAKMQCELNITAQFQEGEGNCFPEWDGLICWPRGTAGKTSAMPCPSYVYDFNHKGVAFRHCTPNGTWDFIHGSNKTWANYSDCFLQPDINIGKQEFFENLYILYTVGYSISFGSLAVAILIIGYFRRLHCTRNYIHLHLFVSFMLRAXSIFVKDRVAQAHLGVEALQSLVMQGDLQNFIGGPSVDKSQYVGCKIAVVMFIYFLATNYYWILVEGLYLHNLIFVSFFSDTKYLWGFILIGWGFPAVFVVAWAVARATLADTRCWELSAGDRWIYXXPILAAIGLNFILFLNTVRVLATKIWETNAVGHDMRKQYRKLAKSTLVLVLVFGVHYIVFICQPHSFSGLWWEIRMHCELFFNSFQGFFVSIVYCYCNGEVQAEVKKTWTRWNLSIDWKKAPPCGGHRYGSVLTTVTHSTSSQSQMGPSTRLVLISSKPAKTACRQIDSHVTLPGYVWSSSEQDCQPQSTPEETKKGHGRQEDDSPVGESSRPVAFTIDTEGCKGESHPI
Source text: (§1) HEK293 cells were transfected with rat and human PTH2R and cell lines that stably express the receptors were established and evaluated. One cell line was selected for each rat and human PTH2R and used for all the functional assays. Specifically, HEK293 cells were transfected with pCDNA3.1/V5-His-RatPTH2R plasmid DNA and pCDNA3.1-E/Uni-lacZ-HumanPTH2R plasmid DNA using FuGENE 6 transfection reagent (Roche Molecular Biochemicals). Three days after transfection, cells were put under selection with 800 μg/ml geneticin (G418, Gibco BRL). After three weeks of selection, single colonies were cloned using cloning cylinders. Cloned colonies were scaled up to T25 flasks. More than 10 cell lines for each plasmid were tested for function in the cAMP SPA assay.
(§2) HEK293PTH2R cells were seeded in a 96-well poly-D-lysine coated plate at 100,000 cells per well and cultured overnight. After washing with 200 μl of PBS and treating with 100 μl of 300 nM IBMX in assay medium (MEM without phenol red and FBS) at 37° C. for 10 min. The assay medium was then aspirated and the cells were washed with PBS. The cellular of cAMP was measured using cAMP SPA Direct Screening (Amersham/Pharmacia RPA559). Each concentration of ligand was repeated as triplicate.

human PTH2R [3] = target: T2, human PTH2R (Homo sapiens, UniProt P49190); test: cAMP SPA assay for PTH2R activation, human PTH2R; assay type: cell-based; conditions: HEK293 cells expressing human PTH2R, FIG. 4B
T2 construct: expressed in transfected cells
T2 sequence (P49190 25-550): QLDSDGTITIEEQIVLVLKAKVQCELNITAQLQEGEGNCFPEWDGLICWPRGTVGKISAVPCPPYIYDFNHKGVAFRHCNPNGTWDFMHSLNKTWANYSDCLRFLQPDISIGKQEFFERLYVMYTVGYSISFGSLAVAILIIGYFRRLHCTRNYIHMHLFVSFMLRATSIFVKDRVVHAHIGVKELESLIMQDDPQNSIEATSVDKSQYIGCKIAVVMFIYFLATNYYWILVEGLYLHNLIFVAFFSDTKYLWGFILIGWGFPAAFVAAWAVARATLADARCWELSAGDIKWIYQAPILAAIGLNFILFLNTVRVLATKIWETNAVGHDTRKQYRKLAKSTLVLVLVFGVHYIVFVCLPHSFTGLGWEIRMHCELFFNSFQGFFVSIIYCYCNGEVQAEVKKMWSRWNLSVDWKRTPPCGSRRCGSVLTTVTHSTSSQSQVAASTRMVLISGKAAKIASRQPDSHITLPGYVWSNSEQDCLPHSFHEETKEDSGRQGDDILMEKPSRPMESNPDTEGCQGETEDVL
Source text: as §1, §2

rat PTH2R [4] = target: T1, rat PTH2R; test: Measurement of [Ca2+]i using the FLIPR, rat PTH2R; assay type: cell-based
Source text: as §1
(§3) HEK293 cells were seeded into […] clear-base 96 well plates (BD Biocoat) coated with poly-D-lysine at a density of 100,000 cells per well in MEM, and cultured overnight.
(§4) Curve-fitting and parameter estimation were carried out using Graph Pad Prism, 3.00 (GraphPad Software Inc., California, U.S.A.).

human PTH2R [5] = target: T2, human PTH2R; test: Measurement of [Ca2+]i using the FLIPR, human PTH2R; assay type: cell-based; conditions: human PTH2R expressing HEK293 cells
Source text: as §1, §3, §4

human PTH2R [6] = target: human PTH2R (human, UniProt P49190 25-550); test: cell-based or functional assay
Chain of human PTH2R (human, UniProt P49190 25-550) (P49190 25-550): as above

Chain of rat PTH2R (rat, UniProt P70555 25-546) (P70555 25-546): as the sequence (P70555 25-546) above

bovine tuberoinfundibular peptide of 39 residues [bTIP39]
effect on cAMP (F-11 cells): increases cAMP

human PTH (1-34) (from UniProt P01270 32-65) (peptide)
logEC50, cAMP increase (cAMP SPA assay) in HEK293 cells stably expressing rat PTH2R (rat PTH2R [1]): -9.3
maximal level of cAMP (pmol/100,000 cells) (rat PTH2R [1]): < 29

human PTH(1-34)
relative potency, cAMP (rat PTH2R [2]): slightly less potent
relative potency, cAMP (human PTH2R [3]): slightly less potent than the other peptides
agonist character, [Ca2+]i response (rat PTH2R [4]; rat PTH2R expressing HEK293 cells): little response if any
agonist character, [Ca2+]i response (human PTH2R [5]): little response

rat PTH(1-34)
maximum response compared to that of human TIP39 (rat PTH2R [4]; rat PTH2R expressing cells, [Ca2+]i FLIPR): ~30%
maximum response compared to that elicited by human TIP39 (human PTH2R [5]; [Ca2+]i FLIPR): 42±2%

rat PTH(1-34) (from UniProt P04089 32-65) (peptide)
maximal level of cAMP (pmol/100,000 cells) (rat PTH2R [1]): < 29
maximum [Ca2+]i response compared to that of human TIP39 (rat PTH2R [1]): 30%

SLALADDAAFRERARLLAALERRRWLDSYMQKLLLLDAP [mouse tuberoinfundibular peptide of 39 residues]
logEC50, [Ca2+]i increase (FLIPR) (rat PTH2R [1]): -7.3
logEC50, cAMP increase (cAMP SPA assay) in HEK293 cells stably expressing rat PTH2R (rat PTH2R [1]): -9.9
logEC50, [Ca2+]i increase (FLIPR) (human PTH2R [6]): -7.8
logEC50, cAMP increase (cAMP SPA assay) in HEK293 cells stably expressing human PTH2R (human PTH2R [6]): -9.7
